Laboratory results as given in the supplement of paper PMC9112550, “Optimization of the antimicrobial peptide Bac7 by deep mutational scanning” (BMC Biology, 2022).

These sequences were tested on Escherichia coli TOP10 (assay: shrunken log2 fold change of peptide-encoding DNA abundance (4.5 h post-induction vs induction); higher = less antimicrobial activity (less host growth inhibition)). Conditions: time post-induction: 4.5 h; library: site-saturation at positions 5, 18, 19, 20.
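Further: peptides expressed intracellularly from a pBAD plasmid library in pooled LB shake-flask culture, induced with 0.3% L-arabinose, DNA abundance read by NGS, three biological replicates, DESeq2 with apeglm shrinkage.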

Row | Sequence | shrunken log2 fold change
1 | RRIRNRPPRLPRPRPRPWPAPRP | 0.0494
2 | RRIRIRPPRLPRPRPRPDLSPRP | -0.000521
3 | RRIRMRPPRLPRPRPRPMAQPRP | -0.0018
4 | RRIRIRPPRLPRPRPRPSPSPRP | 0.0467
5 | RRIRNRPPRLPRPRPRPNNVPRP | -0.943
6 | RRIRIRPPRLPRPRPRPMIYPRP | -0.205
7 | RRIRERPPRLPRPRPRPRPHPRP | 0.791
8 | RRIRSRPPRLPRPRPRPWTIPRP | -0.133
9 | RRIRLRPPRLPRPRPRPEYDPRP | 0.0855
10 | RRIRERPPRLPRPRPRPSFQPRP | -0.0708
11 | RRIRNRPPRLPRPRPRPTFKPRP | -0.175
12 | RRIRCRPPRLPRPRPRPEQQPRP | -0.0118
13 | RRIRMRPPRLPRPRPRPYPTPRP | -0.114
14 | RRIRDRPPRLPRPRPRPVMKPRP | -0.0716
15 | RRIRKRPPRLPRPRPRPMVYPRP | -0.0451
16 | RRIRNRPPRLPRPRPRPQTPPRP | -0.00271
17 | RRIRIRPPRLPRPRPRPQWYPRP | -0.485
18 | RRIRKRPPRLPRPRPRPNNCPRP | -0.256
19 | RRIRNRPPRLPRPRPRPYHTPRP | -0.0317
20 | RRIRPRPPRLPRPRPRPDGTPRP | -0.122
21 | RRIRWRPPRLPRPRPRPQQGPRP | 0.342
22 | RRIRTRPPRLPRPRPRPGFQPRP | -0.0547
23 | RRIRQRPPRLPRPRPRPSVHPRP | -0.276
24 | RRIRPRPPRLPRPRPRPTCVPRP | -0.136
25 | RRIRWRPPRLPRPRPRPCAQPRP | 0.162

Row | Sequence | shrunken log2 fold change
26 | RRIRQRPPRLPRPRPRPQQLPRP | -0.0824
27 | RRIRYRPPRLPRPRPRPCIEPRP | -0.0017
28 | RRIRVRPPRLPRPRPRPHWTPRP | -0.045
29 | RRIRIRPPRLPRPRPRPFRIPRP | -0.103
30 | RRIRCRPPRLPRPRPRPSRPPRP | 0.245
31 | RRIRRRPPRLPRPRPRPMSHPRP | 0.142
32 | RRIRDRPPRLPRPRPRPWGSPRP | -0.0321
33 | RRIRLRPPRLPRPRPRPTHRPRP | 0.101
34 | RRIRVRPPRLPRPRPRPPPNPRP | 0.73
35 | RRIRDRPPRLPRPRPRPAQNPRP | 0.308
36 | RRIRWRPPRLPRPRPRPYFEPRP | -0.483
37 | RRIRMRPPRLPRPRPRPMNNPRP | -0.411
38 | RRIRVRPPRLPRPRPRPIQEPRP | -0.169
39 | RRIRARPPRLPRPRPRPMHSPRP | -0.106
40 | RRIRARPPRLPRPRPRPKFKPRP | -0.0259
41 | RRIRRRPPRLPRPRPRPDEQPRP | 0.237
42 | RRIRRRPPRLPRPRPRPRDTPRP | 0.6
43 | RRIRQRPPRLPRPRPRPTQFPRP | 0.14
44 | RRIRQRPPRLPRPRPRPKSSPRP | 0.0321
45 | RRIRGRPPRLPRPRPRPGWWPRP | 0.113
46 | RRIRNRPPRLPRPRPRPVIGPRP | -0.00814
47 | RRIRLRPPRLPRPRPRPQTMPRP | -0.0345
48 | RRIRCRPPRLPRPRPRPHFEPRP | -0.152
49 | RRIRIRPPRLPRPRPRPQWIPRP | 3.04
50 | RRIRERPPRLPRPRPRPKDFPRP | -0.00088

Row | Sequence | shrunken log2 fold change
51 | RRIRTRPPRLPRPRPRPCCFPRP | -0.114
52 | RRIRCRPPRLPRPRPRPDALPRP | 0.0862
53 | RRIRSRPPRLPRPRPRPNWRPRP | 0.266
54 | RRIRTRPPRLPRPRPRPFNPPRP | -1.37
55 | RRIRTRPPRLPRPRPRPDAMPRP | 0.248
56 | RRIRFRPPRLPRPRPRPPLCPRP | 0.282
57 | RRIRPRPPRLPRPRPRPHEPPRP | 0.239
58 | RRIRNRPPRLPRPRPRPWGWPRP | 0.242
59 | RRIRKRPPRLPRPRPRPDYHPRP | -0.244
60 | RRIRIRPPRLPRPRPRPEVPPRP | -0.0152
61 | RRIRPRPPRLPRPRPRPMQPPRP | 0.234
62 | RRIRARPPRLPRPRPRPFIEPRP | 0.0738
63 | RRIRQRPPRLPRPRPRPAWTPRP | -0.177
64 | RRIRPRPPRLPRPRPRPEVIPRP | 0.0141
65 | RRIRFRPPRLPRPRPRPDDGPRP | -0.0366
66 | RRIRQRPPRLPRPRPRPLCTPRP | -0.543
67 | RRIRPRPPRLPRPRPRPGDVPRP | 0.145
68 | RRIRIRPPRLPRPRPRPDYYPRP | -0.155
69 | RRIRARPPRLPRPRPRPQFCPRP | -0.0724
70 | RRIRMRPPRLPRPRPRPKANPRP | 1.96
71 | RRIRARPPRLPRPRPRPKDDPRP | 0.811
72 | RRIRDRPPRLPRPRPRPTQSPRP | 0.439
73 | RRIRSRPPRLPRPRPRPEGTPRP | 0.123
74 | RRIRSRPPRLPRPRPRPNAVPRP | -0.205
75 | RRIRSRPPRLPRPRPRPNEGPRP | -0.0691

Row | Sequence | shrunken log2 fold change
76 | RRIRCRPPRLPRPRPRPDPMPRP | 0.00263
77 | RRIRYRPPRLPRPRPRPHSMPRP | -0.0542
78 | RRIRARPPRLPRPRPRPHMQPRP | 2.87
79 | RRIRARPPRLPRPRPRPVFPPRP | 0.207
80 | RRIRFRPPRLPRPRPRPSKQPRP | -0.101
81 | RRIRKRPPRLPRPRPRPLLYPRP | 0.0166
82 | RRIRIRPPRLPRPRPRPCGHPRP | 0.00489
83 | RRIRTRPPRLPRPRPRPHYCPRP | -0.418
84 | RRIRGRPPRLPRPRPRPVNDPRP | 0.368
85 | RRIRWRPPRLPRPRPRPCRVPRP | 0.103
86 | RRIRWRPPRLPRPRPRPMEPPRP | 0.0539
87 | RRIRDRPPRLPRPRPRPYSTPRP | -0.0663
88 | RRIRFRPPRLPRPRPRPSKVPRP | -0.293
89 | RRIRGRPPRLPRPRPRPNDLPRP | 0.338
90 | RRIRERPPRLPRPRPRPQGPPRP | 0.0515
91 | RRIRKRPPRLPRPRPRPENVPRP | -0.00931
92 | RRIRMRPPRLPRPRPRPAFCPRP | 0.455
93 | RRIRARPPRLPRPRPRPYVTPRP | -0.658
94 | RRIRMRPPRLPRPRPRPSRWPRP | 1
95 | RRIRGRPPRLPRPRPRPMMRPRP | 1.01
96 | RRIRLRPPRLPRPRPRPPIAPRP | 0.192
97 | RRIRMRPPRLPRPRPRPFNYPRP | -0.559
98 | RRIRMRPPRLPRPRPRPYQKPRP | -0.0182
99 | RRIRTRPPRLPRPRPRPRPPPRP | 0.745
100 | RRIRSRPPRLPRPRPRPITLPRP | -0.333

Row | Sequence | shrunken log2 fold change
101 | RRIRGRPPRLPRPRPRPWQLPRP | 0.372
102 | RRIRYRPPRLPRPRPRPMCDPRP | -0.987
103 | RRIRLRPPRLPRPRPRPQKYPRP | -0.442
104 | RRIRKRPPRLPRPRPRPHAEPRP | 0.126
105 | RRIRSRPPRLPRPRPRPNPTPRP | 0.017
106 | RRIRFRPPRLPRPRPRPRYPPRP | -0.38
107 | RRIRWRPPRLPRPRPRPWICPRP | -0.137
108 | RRIRMRPPRLPRPRPRPDLWPRP | 2.21
109 | RRIRMRPPRLPRPRPRPYDLPRP | -0.242
110 | RRIRDRPPRLPRPRPRPYWCPRP | 0.0158
111 | RRIRARPPRLPRPRPRPEKRPRP | 0.128
112 | RRIRRRPPRLPRPRPRPMLVPRP | 0.196
113 | RRIRRRPPRLPRPRPRPPYDPRP | 0.213
114 | RRIRGRPPRLPRPRPRPLSMPRP | 1.34
115 | RRIRHRPPRLPRPRPRPMFHPRP | -0.509
116 | RRIRFRPPRLPRPRPRPFGFPRP | -0.436
117 | RRIRNRPPRLPRPRPRPQKRPRP | -0.034
118 | RRIRIRPPRLPRPRPRPAWDPRP | -0.0871
119 | RRIRERPPRLPRPRPRPDYTPRP | -1.01
120 | RRIRMRPPRLPRPRPRPLTPPRP | 1.13
121 | RRIRPRPPRLPRPRPRPFETPRP | -0.117
122 | RRIRCRPPRLPRPRPRPGFWPRP | 0.226
123 | RRIRMRPPRLPRPRPRPDGLPRP | 0.143
124 | RRIRRRPPRLPRPRPRPFGSPRP | -0.0013
125 | RRIRQRPPRLPRPRPRPGHYPRP | -0.00181

Row | Sequence | shrunken log2 fold change
126 | RRIRPRPPRLPRPRPRPCTNPRP | -0.0219
127 | RRIRIRPPRLPRPRPRPHEWPRP | 0.0272
128 | RRIRHRPPRLPRPRPRPTMMPRP | -0.503
129 | RRIRDRPPRLPRPRPRPIKTPRP | 0.058
130 | RRIRFRPPRLPRPRPRPHNYPRP | -0.633
131 | RRIRFRPPRLPRPRPRPNGCPRP | -0.0256
132 | RRIRYRPPRLPRPRPRPHSLPRP | -0.184
133 | RRIRSRPPRLPRPRPRPCVWPRP | 0.8
134 | RRIRGRPPRLPRPRPRPTYFPRP | 0.0176
135 | RRIRPRPPRLPRPRPRPQGAPRP | 0.0965
136 | RRIRMRPPRLPRPRPRPSEEPRP | 0.0287
137 | RRIRWRPPRLPRPRPRPMGIPRP | 0.0704
138 | RRIRDRPPRLPRPRPRPTLMPRP | 0.114
139 | RRIRARPPRLPRPRPRPDRMPRP | 0.0124
140 | RRIRYRPPRLPRPRPRPPAIPRP | -0.319
141 | RRIRVRPPRLPRPRPRPSGVPRP | 0.0069
142 | RRIRLRPPRLPRPRPRPVVGPRP | 0.103
143 | RRIRRRPPRLPRPRPRPGESPRP | 0.0142
144 | RRIRGRPPRLPRPRPRPYHNPRP | -0.267
145 | RRIRNRPPRLPRPRPRPMVLPRP | 0.0232
146 | RRIRMRPPRLPRPRPRPGTPPRP | 1.02
147 | RRIRARPPRLPRPRPRPNRVPRP | 0.0397
148 | RRIRQRPPRLPRPRPRPRCQPRP | -0.0547
149 | RRIRGRPPRLPRPRPRPPAMPRP | 1.23
150 | RRIRGRPPRLPRPRPRPQPCPRP | 0.466
